Data: patent publication US20050054043A1 (UNIVERSITY OF VERMONT, published 2005)

How the values were obtained:
[1] = target: T1, transferrin receptor on HeLa S3 cells (human, UniProt P02786 1-760); assay: direct equilibrium binding of radioiodinated diferric transferrin to HeLa S3 cells, LIGAND fit (apparent Kd')
T1 construct: whole, on cells; also called human receptors; cell-surface transferrin receptors
Protocol: After 30 min of incubation at 37° C. with gentle shaking, portions of the cell suspension (3×100 μL) were pipetted into microfuge tubes containing 0.9 mL of ice-cold JMEM-BSA over 300 μL of dibutyl phthalate and centrifuged for 2 min in a Beckman microfuge. The aqueous and organic phases were aspirated to just above the cell pellet. The bottom of the tube containing the cell pellet was released by a hot wire into a plastic tube (12×75 mm) and assayed for radioactivity.

[2] = target: T1, transferrin receptor on HeLa S3 cells; assay: competition of unlabeled transferrin against radioiodinated Boehringer Mannheim hTf on HeLa S3 cells, LIGAND fit (apparent Kd')
Protocol: Cells were routinely grown in DMEM-F-12 containing 10% newborn calf serum. Prior to beginning a binding experiment, the cells were harvested with Versene, and taken up in Joklik's minimum essential medium-20 mM Hepes-2% BSA (JMEM-BSA). Endogenous bovine transferrin was removed from the HeLa cells by incubation for 10 min at 37° C. at a 5-fold dilution with JMEM-BSA. After centrifugation of the cells and removal of the supernatant, this procedure was repeated twice. […] After 30 min of incubation at 37° C. with gentle shaking, portions of the cell suspension (3×100 μL) were pipetted into microfuge tubes containing 0.9 mL of ice-cold JMEM-BSA over 300 μL of dibutyl phthalate and centrifuged for 2 min in a Beckman microfuge. The aqueous and organic phases were aspirated to just above the cell pellet. The bottom of the tube containing the cell pellet was released by a hot wire into a plastic tube (12×75 mm) and assayed for radioactivity.

T1 sequence (P02786 whole entry): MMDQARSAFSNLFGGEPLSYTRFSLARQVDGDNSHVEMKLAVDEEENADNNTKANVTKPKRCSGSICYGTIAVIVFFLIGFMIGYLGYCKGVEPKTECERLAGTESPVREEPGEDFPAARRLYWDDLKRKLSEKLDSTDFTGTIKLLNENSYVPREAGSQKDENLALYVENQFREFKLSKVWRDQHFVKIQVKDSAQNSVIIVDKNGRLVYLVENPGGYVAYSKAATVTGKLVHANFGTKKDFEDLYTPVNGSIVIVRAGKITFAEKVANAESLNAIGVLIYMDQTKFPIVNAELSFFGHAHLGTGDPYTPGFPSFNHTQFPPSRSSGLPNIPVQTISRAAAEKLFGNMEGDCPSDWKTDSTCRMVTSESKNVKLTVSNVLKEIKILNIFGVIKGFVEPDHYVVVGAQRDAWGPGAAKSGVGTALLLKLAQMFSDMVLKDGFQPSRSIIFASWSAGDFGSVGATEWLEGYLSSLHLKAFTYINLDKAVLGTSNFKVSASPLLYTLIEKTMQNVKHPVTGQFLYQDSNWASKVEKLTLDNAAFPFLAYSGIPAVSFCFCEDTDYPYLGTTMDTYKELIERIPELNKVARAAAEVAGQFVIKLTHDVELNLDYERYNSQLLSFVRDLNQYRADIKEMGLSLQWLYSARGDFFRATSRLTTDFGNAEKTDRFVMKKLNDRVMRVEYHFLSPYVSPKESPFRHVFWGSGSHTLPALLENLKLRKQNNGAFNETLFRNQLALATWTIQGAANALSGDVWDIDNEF

B1: hTf N413D/N611D mutant (recombinant nonglycosylated human serum transferrin), diferric (ligand)
chain: VPDKTVRWCAVSEHEATKCQSFRDHMKSVIPSDGPSVACVKKASYLDCIRAIAANEADAVTLDAGLVYDAYLAPNNLKPVVAEFYGSKEDPQTFYYAVAVVKKDSGFQMNQLRGKKSCHTGLGRSAGWNIPIGLLYCDLPEPRKPLEKAVANFFSGSCAPCADGTDFPQLCQLCPGCGCSTLNQYFGYSGAFKCLKDGAGDVAFVKHSTIFENLANKADRDQYELLCLDNTRKPVDEYKDCHLAQVPSHTVVARSMGGKEDLIWELLNQAQEHFGKDKSKEFQLFSSPHGKDLLFKDSAHGFLKVPPRMDAKMYLGYEYVTAIRNLREGTCPEAPTDECKPVKWCALSHHERLKCDEWSVNSVGKIECVSAETTEDCIAKIMNGEADAMSLDGGFVYIAGKCGLVPVLAENYDKSDNCEDTPEAGYFAVAVVKKSASDLTWDNLKGKKSCHTAVGRTAGWNIPMGLLYNKINHCRFDEFFSEGCAPGSKKDSSLCKLCMGSGLNLCEPNNKEGYYGYTGAFRCLVEKGDVAFVKHQTVPQNTGGKNPDPWAKNLNEKDYELLCLDGTRKPVEEYANCHLARAPNHAVVTRKDKEACVHKILRQQQHLFGSDVTDCSGNFCLFRSETKDLLFRDDTVCLAKLHDRNTYEKYLGEEYVKAVGNLRKCSTSSLLEACTFRRP
modifications: non-glycosylated; diferric (iron-saturated); radioiodinated in Table 2 (A), unlabeled in (B)
notes: Full-length human transferrin with both N-glycosylation sites changed to Asp, expressed in BHK cells; Positions use mature-protein numbering; also called hTf(N/D)
- Kd [1]: 23.4 nM
- Kd [2]: 19.8 nM
